# Reference: the nanobody polyreactivity screen of Harvey et al. (2022)
# Test: yeast display, Sf9 membrane polyspecificity reagent, FACS + sequencing; frameworks hold sequencing errors
# Method in brief: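 Nanobodies came from a synthetic yeast display library in Saccharomyces cerevisiae BJ5465, induced with galactose for 36–48 hours and stained for 1 hour at 4 °C with 10% biotinylated, detergent-solubilized Sf9 membrane reagent. Cells were enriched on streptavidin microbeads and then FACS-sorted, with low and high (top ~1%) gates set on anti-HA fluorescence for expression and streptavidin fluorescence for reagent binding. Each polyreactivity label reflects the gate a clone came from. Genes were amplified by colony PCR, sequenced by MiSeq 2 × 250 and filtered by CDR length.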
row,Sequence,polyreactivity (PSR sort gate)
1,QVQLVESAGGLVQAGGSLRLSCAASGIILYYYAMGWYRHAPGKERELVAAISSGGNTYYADSVKGRFTISRDNAKNTVYLQMNSLKPEDTAVYYCAAVTVIGGEYDYWGQGTQVTVSS,low polyreactivity
2,QVQLVESGGGLVQAGGSLRLSCAASGSIFGRYVMGWYRQAPGKERELVARITQSGGSTYYADSVKGRFTISRDNAKNTVYLQMNSLKPEDTAVYYCAAATSWWWLYYWGQGTQVTVSS,high polyreactivity
3,QVQLVESGGGLVQAGGSLRLSCAASGSTFFVANAMGWYRQSPGKERELVAAISPSGGSTYYADSVKGRFTISRDNAKNTVYLQMNSLKPEDTAVYYCATSVRRFTRRYDYWGQGTQVTVSS,high polyreactivity
4,QVQLVESGGGLVQAGGSLRLRCAASGIIFSPYDMGWSIQAPGKVRELVAAITTGDSTNYADSVKGRFTMSRDNAKTTVYFPMNSLKPEDTAVDYCNATDTYVFFLYLEFDYWGQGTQVTVSS,low polyreactivity
5,QVQLVESGGGLVQAGGSLRLSCAASGRIFKGYAIGWYRLAPGKERELVASITWRGGTTYYADSVKGRFTISRDNAKNTVYLQMNSLKPEDTAVYYCATTRYPRSYQEFGYWGQGTQVTVSS,high polyreactivity
6,QVQLVESGGGLVQAGGSLRLSCAASGRTFGYYAMGWYRQAPGKERELVATITWSGGSTYYADSVKGRFTISRDNAKNTVYLQMNSLKPEDTAVYYCATDALYTYGYDYWGQGTQVTVSS,low polyreactivity
7,QVQLVESGGGLVQAGGSLRLSCAASGRTFGRNAMGWYRQAPGKERELVAAITWSGGSTYYADSVKGRFTISRDNAKNTVYLQMNSLKPEDTAVYYCAADRSRWGQGTQVTVSS,high polyreactivity
8,QVQHVESGGGLVQAGGSLRLICAASGSTFGNYAMGWYRQAPGKERELVAAISTSGGSTYYADSVKGRFTISRDNAKNTVYLQMNSLKPEDTAVYYCANRLVRGRSRAVSDYYWGQGTQVTVSS,high polyreactivity
9,QVQLVESGGGLVQAGGSLRLSCAASGRTSTIYTMGWYRQAPGKEREFVASISAGAGTYYADSVKGRFTISRDNAKNTVYLQMNSLKPEDTAVYYCSASVYWRSTRRHQMDYWGQGTQVTVSS,high polyreactivity
10,QVQLVESGGGLVQAGGSLRLSCAASGSIFVKNAMGWYRQAPGKERELVATISRRGGSTYYADSVKGRFTISRDNAKNTVYLQMNSLKPEDTAVYYCNRLGTTVSLEYYYWGQGTQVTVSS,high polyreactivity
11,QVQLVESGGRLVQAGGSLRLSCAASGFIFWSYAMGWYRQARGKERELVAAISWSGGRTYYADSVKGRFTISRDNAKNTVYLQMNSLKPEDTAVYYCAAVKRYSSQYPALDYWGQGTQVTVSS,high polyreactivity
12,QVQLVESGGGLVQAGGSLRLSCAASGSIYHVYALGWYRQAPGKERELVATISSGGSTYYADSVKGRFTISRDNEKNTVYLQMNSLKPEDTAVYYCNADWFLYGGWYGYGYWGQGTQVTVSS,low polyreactivity
13,QVQLLESGGGLVQAGASLRLSCAASGSICWVYDMGWYRQAPGKERELVAAISQSGGSTYYADSVKGRFTISRDNAKNTVYFQMNSLKPEDTAGYYCAAYVRGQNYDYWGQGTQVTVSS,high polyreactivity
14,QVQLVESGGGLVQAGGSLRLSCAASGLIFTRYAMGWYRQAPGKERELVAAISYSGTSTYYADSVKGRFTISRDNAKNTVYLQMNSLKPEDTAVYYCAAAYSRGSGVGRYRLDYWGQGTQVTVSS,high polyreactivity
15,QVQLVESGGGLVQAGGSHRVSCAASGYIFLHYAMGWYRQATGKEREFVAAITYSGGNTYYADSVKGRFTISRDNAKNTVYLQMISLKPEDTAGYYCAKTRIYSKHWTEPYFYRVDSWGQGTQVTVSS,high polyreactivity
16,QVQLVESGGGLVQAGGSLRLSCAASGLTFRVYAMVWYRQAPGKERELVAAISKRGGSTYYADSVKGRFTISRDNAKKTVYLQMNSLKPEENAVYSCAADSDNSVRLAGSGGNYCGQGTQVTVSS,high polyreactivity
17,QVQLVESGGGLVQAGGSLRLSCAASGRTFRYYAMGWYRQAPGKERELVAAITRGGRTNYADSVKGRFTISRDNAKNTVYLQMNSLKPEDTAVYYCAAVLYTPNKYASYYWGQGTQVTVSS,high polyreactivity
18,QVQLVESGGCLVQAGGSLRLSCAASGRTFYAYAMGWYRQAPGKERELVAAISWRGGDTYYADSVKGRFTISRDNAKNTVYLQMNSLKPEETGVYYCAKYLSRQSGDGEYDYWGQGTQVTVSS,low polyreactivity
19,QVQLVESGGGLVQAGGSLRLSCAASGLIFGYYAMGCYRQAPGKERELVAAISSSGSTYYADSVKGRFTISCDNEKNTVYLQMNSLKPEDTAVYYCNVDISSYGGDYWGQGTQVTVSS,low polyreactivity
20,HVQLVETGGGIVQAGGSLRLSCAASGFIFRYYARGWYRPSHGKETELVAAIDYSGGSTNYADSVKGRFTISRDYAKNTVSLQMNSLKPEDTAVYYCAAYLGWGYDYWGQGTQVTVSS,low polyreactivity
21,QVQLVESGGGLVQAGGSLRLSCAASGSTQFGYAIGWYRQAPGKEREFVAAITSGGNTYYADSVKGRFTISLDNAKYTVYLQMNSLKPEDTAVFYCNKRYRSFAARLRGYDYWGQGTQVTVSS,high polyreactivity

row,Sequence,polyreactivity (PSR sort gate)
1,QVQLVESGGGLVQAGGSLRLSCAASGSTFDANTMGWYRQAPGKERELVAAISSNGGRTYYADSVKGRFTISRDNAKNTVYLLMNSLKPEDTAVYYCAASSYYRYRETYDYWGLGTQVTVSS,high polyreactivity
2,QVQLVESGGGLVQAGGSLRLSCAASGRILTPYTMGWYRQAPGKERELVAAISKRGTSTHYADSVKGRFTISRDNAKNTVYLLMNSLKPEDTAVYYCNAVYRSSQYDYWGQGTQVTVSS,high polyreactivity
3,QVQLVESGGGLVQAGGSLRLSCAASGFTSDAYAMGCYRQAPGKDRELVAAISGSGDITYYADSVKGRFTISRDNAKYTVYFQMNSLKPEDTAVYYCSVGSYYAWFYYWGQGTQVTVSS,high polyreactivity
4,QVQLVESGGRLVQAGGRLRLSCAASGSIFMKNAMGWYRPAHGKERELVADITRSGDRTYYADSVKGRFTISRDNAKNTVYLQMNSLKPEDTAVYYCAKYYVWPRYGYSGQGTQVTVSS,high polyreactivity
5,QVQLVESGGGLVQAGGSLRLSCAASGFTFYPYAMGWYRQAPGKERELVASFTSAGGTNYADSVKGRFTISRDNAKNTVYLQMNSLKPEDTAVYYCAAKYRSRGPDYYFKSDYWGQGTQVTVSS,low polyreactivity
6,QVQLVESGGGLVQAGGSLRLSCAASGRIFGGYAMGWYRQAPGKERELVAAISSGGNTKYADSVKGRFTISRDNAKNTVYLQMNSLKPEDTAVYYCAAKFAQPYYRYDYWGQGTQVTVSS,high polyreactivity
7,QVQLVESGGGLVQAGGSLRLSCAASGRTIAPYAMGSYRQAPGKERELVAAITYSGGSTYYADSVKGRFTISRDNAKNTVYLQMNSLKPEDTAVYYCAVDTTTSYTVEYDYWGQGTQVTVSS,low polyreactivity
8,QVQLVESGGGLVQAGGSLRLSCAASGFILARYAMGWYRQAPGKERELVAVISSGGSSTFYADSVKGRFTISRDNAKNTVYLQMNSLKPEDTAVYYCAARYKSSKKVGFDYWGQGTQVTVSS,high polyreactivity
9,QGQLVESGGGLVQAGGSLRLSCAASGSTFSDYAKGWYRQAPGKERELVAGITGGGGTYYADSVKGRFTISRDNAKNTVYLQMNSLKPEDTAVYYCAAGRRHGFGYWGQGTQVTVSS,low polyreactivity
10,QVQLVESGGGLVQAGGSLRLSCAASGNIFRGYTMGWYRQAPGKERELVATITWNGVSTFYADSVKGRFTISRDNAKNTVYLQMNSLKPEDTAVYYCAAYYPSHDYSGFWSDTYEYWGQVTQVTVSS,low polyreactivity
11,QVQLVESGGGLVQAGGSLRLSCAASGITFVHNVMGWYRQAPGKDRELVAAINSGGRTYYADSVKGRFTISRDNAKKTVYLQMNSLKPEDSAVYYCAALGDKRGGGHYWGQGTQVTVSS,high polyreactivity
12,QVHLVESGGGLVQAGGSLRLSCAASGFTFYQYAMGWYRQAPGKERELVAAITASGGSTYYADSVKRRFTISRDNAKNTVYLQMNSLKPEDTAVYYCAAERYFVLYRYYSYAYYYWGQGTQVTVSS,high polyreactivity
13,QVQLVESGGGLVQAGGSLRLSCAASGFIFSYYAMGWYRQAPGKERELVAAITWSGGGTYYADSVKGRFTISRDNAKNTVYLQMNSLKPEDTAVYYCAAERVYPDGEYWGQGTQVTVSS,high polyreactivity
14,QVQLVESGGGLVQAGGSLRLSCAASGSTFSRYAMGWYRQAPGKERELVAAISSRGGSTYYADSVKGRFTISRDNAKNTVYLQMNSLKPEDTAVYYCAARPYYYIVRGTEYDYWGQGTQVTVSS,high polyreactivity
15,QVQLVESGGGLVQAGGSLRLSCAASGSIFYRNVMGWYRQAPGKERELVAAISQRGGSTYYADSVKGRFTISRDKAKNTVFLQMNSLKPEDTAVYYCNAASRGAGTSIWSWYDLWGQGTQVTVSS,low polyreactivity
16,QVQLVESGGGLVQAGGSLRLICAASGRIFPFYAMGWYRPEPGKERELVASISWSGGSTYYADSVKGRFTISRDNAKNPVYLQMNSLKPEDTAVFFCAARRWIADPGRIMDYWGQGTQVTVSS,high polyreactivity
17,QVQLVESGGGLVQAGGSLRLSCAASGSIFEWYAMGWYRQAPGKERELVAAINSGGSTYYADSVKGRFTISRDNAKNTVYLQMNSLKPEDTAVYYCNADTLLQDRLGDWYDYDYWGQGTQVTVSS,low polyreactivity
18,QVQLVESGGGLVQAGGSLRLSCAASGRIFYRNAMGWYRQAAGKERELVAGITRGGSTNYADSVKGRFTISRDNAKNTDYLQMNSLKPEETAVYYCAKAIPAKFYSEAGYDYWGQGTQVTVSS,low polyreactivity
19,QVQLVESCGGLVQAGGSLRLSCAASGITFFGYDMGWYRQAPWKEWELVAAITSTGRTYYADSVKGRFTISRDNAKKTDYLQMNSLTPEDTAVYYCNAARYPRSWYYKLDYWGQGTQVTVSS,high polyreactivity
20,QVQLVDSGGGLVQAGGTLRLSCAATGRTVSKYAMGWYRQAPGKERELVAAITRSGGRTYYADSVKGRFTISRDNAKNTVYLQMNSLKPEDTAVYYCARTTNQHTLATEDDYWGQGTQVTVSS,high polyreactivity
